The series “SEC-MALS” deals with the molecule itself. Put plainly: SEC-MALS.
The target of the next series is SSB (Escherichia coli, UniProt P0AGE0 1-178). Put plainly: EMSA.
Series [1] has as its target T1, HelQ (Homo sapiens, UniProt Q8TDG4).
T1 sequence: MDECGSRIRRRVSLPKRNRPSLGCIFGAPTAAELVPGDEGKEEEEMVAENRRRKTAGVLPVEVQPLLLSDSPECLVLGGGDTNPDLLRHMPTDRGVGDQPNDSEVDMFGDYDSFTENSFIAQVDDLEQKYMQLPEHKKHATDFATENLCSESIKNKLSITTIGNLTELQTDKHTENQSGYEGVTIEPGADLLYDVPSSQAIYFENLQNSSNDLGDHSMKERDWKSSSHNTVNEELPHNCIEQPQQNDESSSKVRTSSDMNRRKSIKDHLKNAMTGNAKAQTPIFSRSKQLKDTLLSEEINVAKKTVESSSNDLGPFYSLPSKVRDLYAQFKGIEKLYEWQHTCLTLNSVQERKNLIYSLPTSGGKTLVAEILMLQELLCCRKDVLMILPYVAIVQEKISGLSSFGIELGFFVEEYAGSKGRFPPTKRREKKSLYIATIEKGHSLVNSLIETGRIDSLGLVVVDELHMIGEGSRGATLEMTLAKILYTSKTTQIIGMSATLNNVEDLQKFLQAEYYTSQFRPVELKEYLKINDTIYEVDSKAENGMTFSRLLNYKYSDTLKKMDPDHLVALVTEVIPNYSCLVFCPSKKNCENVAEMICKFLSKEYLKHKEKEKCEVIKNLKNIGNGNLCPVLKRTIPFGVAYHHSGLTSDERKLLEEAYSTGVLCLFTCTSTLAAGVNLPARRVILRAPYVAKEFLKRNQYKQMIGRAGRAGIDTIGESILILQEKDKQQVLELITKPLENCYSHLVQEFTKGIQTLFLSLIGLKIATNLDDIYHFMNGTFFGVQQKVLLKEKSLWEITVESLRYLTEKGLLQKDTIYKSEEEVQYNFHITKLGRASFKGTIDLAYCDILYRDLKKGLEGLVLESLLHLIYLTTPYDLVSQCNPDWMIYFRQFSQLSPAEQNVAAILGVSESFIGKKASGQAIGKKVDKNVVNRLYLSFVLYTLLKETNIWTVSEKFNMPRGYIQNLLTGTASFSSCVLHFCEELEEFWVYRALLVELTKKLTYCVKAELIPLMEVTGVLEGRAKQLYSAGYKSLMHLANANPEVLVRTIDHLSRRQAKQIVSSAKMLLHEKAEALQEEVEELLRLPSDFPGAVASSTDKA
The series can be described thus: EMSA. For orientation: Mobility shift assays separate free from complexed probe on a gel.

For another series, the target named is T2, N-HelQ (Homo sapiens, UniProt Q8TDG4 1-417).
T2 sequence: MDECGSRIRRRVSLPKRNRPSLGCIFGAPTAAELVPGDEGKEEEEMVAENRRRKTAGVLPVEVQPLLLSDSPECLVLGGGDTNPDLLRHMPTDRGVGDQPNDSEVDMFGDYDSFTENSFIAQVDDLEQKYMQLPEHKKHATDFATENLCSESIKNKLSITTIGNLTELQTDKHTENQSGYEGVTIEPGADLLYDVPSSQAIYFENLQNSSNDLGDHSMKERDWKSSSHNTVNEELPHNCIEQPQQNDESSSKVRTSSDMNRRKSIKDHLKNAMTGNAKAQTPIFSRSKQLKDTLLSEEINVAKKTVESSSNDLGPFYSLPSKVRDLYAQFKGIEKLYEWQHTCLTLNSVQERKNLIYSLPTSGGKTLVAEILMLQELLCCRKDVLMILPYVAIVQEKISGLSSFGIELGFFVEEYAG
The series can be described thus: EMSA.

Another series concerns the target HelQ;RPA (Homo sapiens;Homo sapiens, UniProt Q8TDG4;P27694;P15927;P35244 ;1-616;1-270;1-121, |). The series can be described thus: EMSA.
Another series concerns the target N-HelQ;RPA (Homo sapiens;Homo sapiens, UniProt Q8TDG4;P27694;P15927;P35244 1-417;1-616;1-270;1-121, |). Put plainly: EMSA.
For series [2], the target named is T1, HelQ. The series can be described thus: EMSA. The source holds these as a separate data set.

Read-outs that look alike come from different tables or passages of the source.

SSB, sequence (P0AGE0 whole entry): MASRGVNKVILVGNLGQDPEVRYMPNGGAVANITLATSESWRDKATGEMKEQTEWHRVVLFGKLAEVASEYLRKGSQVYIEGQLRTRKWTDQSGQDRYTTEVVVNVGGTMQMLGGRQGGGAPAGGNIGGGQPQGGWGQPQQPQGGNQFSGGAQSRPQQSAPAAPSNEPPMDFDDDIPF
N-HelQ;RPA, sequence (P27694 whole entry, chain 2 of 3): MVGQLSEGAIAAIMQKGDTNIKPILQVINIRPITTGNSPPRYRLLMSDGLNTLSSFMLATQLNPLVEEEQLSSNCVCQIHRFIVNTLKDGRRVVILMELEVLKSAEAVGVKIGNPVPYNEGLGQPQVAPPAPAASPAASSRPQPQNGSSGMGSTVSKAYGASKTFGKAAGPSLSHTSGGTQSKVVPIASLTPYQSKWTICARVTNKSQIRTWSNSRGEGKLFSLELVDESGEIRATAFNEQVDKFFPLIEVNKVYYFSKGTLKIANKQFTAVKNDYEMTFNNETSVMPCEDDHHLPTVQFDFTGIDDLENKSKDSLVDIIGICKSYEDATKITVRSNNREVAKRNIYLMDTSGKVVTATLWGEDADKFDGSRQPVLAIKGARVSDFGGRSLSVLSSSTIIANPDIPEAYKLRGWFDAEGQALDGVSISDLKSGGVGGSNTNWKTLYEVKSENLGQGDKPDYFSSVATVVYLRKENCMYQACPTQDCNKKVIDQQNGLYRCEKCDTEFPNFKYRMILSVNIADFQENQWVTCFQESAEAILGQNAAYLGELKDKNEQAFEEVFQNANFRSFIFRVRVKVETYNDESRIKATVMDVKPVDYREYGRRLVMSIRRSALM
N-HelQ;RPA, sequence (P15927 whole entry, chain 3 of 3): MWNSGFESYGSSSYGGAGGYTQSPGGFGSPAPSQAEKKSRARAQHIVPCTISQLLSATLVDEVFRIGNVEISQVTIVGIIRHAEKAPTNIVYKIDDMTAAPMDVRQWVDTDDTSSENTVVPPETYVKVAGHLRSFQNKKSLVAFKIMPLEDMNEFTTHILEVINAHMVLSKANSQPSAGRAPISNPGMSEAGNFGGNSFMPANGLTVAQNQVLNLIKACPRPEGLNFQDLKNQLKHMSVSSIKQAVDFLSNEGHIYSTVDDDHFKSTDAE
N-HelQ;RPA, sequence (P35244 whole entry, chain 4 of 3): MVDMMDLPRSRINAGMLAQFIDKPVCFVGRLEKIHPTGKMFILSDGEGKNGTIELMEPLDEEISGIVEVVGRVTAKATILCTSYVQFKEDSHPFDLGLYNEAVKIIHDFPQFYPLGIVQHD
HelQ;RPA, sequence (P27694 whole entry, chain 2 of 3): as the sequence (P27694 whole entry, chain 2 of 3) above
HelQ;RPA, sequence (P15927 whole entry, chain 3 of 3): as the sequence (P15927 whole entry, chain 3 of 3) above
HelQ;RPA, sequence (P35244 whole entry, chain 4 of 3): as the sequence (P35244 whole entry, chain 4 of 3) above

B1: human HelQ helicase (full-length HelQ) (enzyme)
chain: T1 sequence
As for B1, the stoichiometry N (usually the number of molecules, sites or subunits per partner or assembly) in the series “SEC-MALS” stood at 2.

B2: Fork-A (mixed)
DNA 1: GTCGGATCCTCTAGACAGCTCCATGATCACTGGCACTGGTAGAATTCGGC
DNA 2: CAACGTCATAGACGATTACATTGCTACATGGAGCTCTCTAGAGGATCCGA
Regarding B2, the binding result with SSB is “binds”; with HelQ [1], “binds”; in the series with N-HelQ it was “no binding”; with HelQ;RPA it was “binds”; with N-HelQ;RPA, “binds”.

B3: Fork-AP (mixed)
DNA 1: B2 DNA 1
DNA 2: B2 DNA 2
modifications: single abasic site in the 3'-5' tracking strand (position marked only in Fig S6)
B3: the binding result with HelQ [2] is on record as “binds”.

B4: Fork-S (mixed)
DNA 1: B2 DNA 1
DNA 2: B2 DNA 2
modifications: single phosphorothioate linkage in the 3'-5' tracking strand (position marked only in Fig S6)
As for B4, in the series with HelQ [2], the binding result is listed as “binds”.

B5: Fork-Me (mixed)
DNA 1: GTCGGATCCTCTAGACAGCATCCATGATCACTGGCACTGGTAGAATTCGGC
DNA 2: CAACGTCATAGACGATTACATTGCTACATGGATGCTGTCTAGAGGATCCGA
modifications: single methylphosphonate linkage in the 3'-5' tracking strand (position marked only in Fig S6)
Turning to B5, in the series with HelQ [2], the binding result is recorded as “binds”.

The values are drawn from article doi:10.1101/511758 (bioRxiv, 2019).
